PMC7896056

Legend:
[1] = biological target: SIRT1 (183–510+GS+641–665) (human) (UniProt Q96EB6); assay: ITC; Ac-p53 peptide (500 μM) titrated into 10 μM SIRT1 (183–510+GS+641–665) in the presence of 0.2 mM KPMF-8; 25 °C; 20 mM HEPES pH 7.4, 150 mM NaCl, 0.5% ethanol; one-site model
[2] = biological target: SIRT1 (183–510+GS+641–665) (human) (UniProt Q96EB6); assay: ITC; Ac-p53 peptide (500 μM) titrated into 10 μM SIRT1 (183–510+GS+641–665) in the presence of 0.2 mM resveratrol; 25 °C; 20 mM HEPES pH 7.4, 150 mM NaCl, 0.5% ethanol; one-site model
[3] = biological target: SIRT1 (183–510+GS+641–665) (human) (UniProt Q96EB6); assay: ITC; Ac-p53 peptide (500 μM) titrated into 10 μM SIRT1 (183–510+GS+641–665), no activator; 25 °C; 20 mM HEPES pH 7.4, 150 mM NaCl, 0.5% ethanol; one-site model

Chain of UniProt Q96EB6 (Q96EB6 other isoform, or with tags, fused parts or gaps): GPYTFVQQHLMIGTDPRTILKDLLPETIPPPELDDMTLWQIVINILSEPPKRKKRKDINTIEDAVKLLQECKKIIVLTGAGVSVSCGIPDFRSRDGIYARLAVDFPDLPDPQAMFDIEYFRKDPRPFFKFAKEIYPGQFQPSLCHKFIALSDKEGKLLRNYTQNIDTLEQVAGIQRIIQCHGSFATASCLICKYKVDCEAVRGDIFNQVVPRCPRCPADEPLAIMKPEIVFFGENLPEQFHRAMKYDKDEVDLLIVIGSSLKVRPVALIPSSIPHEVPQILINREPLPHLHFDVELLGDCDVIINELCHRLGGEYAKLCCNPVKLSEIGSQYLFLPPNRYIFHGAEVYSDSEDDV

- Kd [1]: 6.67 µM
- Kd [2]: 38.8 µM
- Kd [3]: 55 µM
Substance: native Ac-p53 peptide
